From patent US20240325555A1 come the findings set out here.

Assay [1] concerns the target T1, rat LIV-1 (rat) (UniProt Q4V887).
T1 sequence (looked up): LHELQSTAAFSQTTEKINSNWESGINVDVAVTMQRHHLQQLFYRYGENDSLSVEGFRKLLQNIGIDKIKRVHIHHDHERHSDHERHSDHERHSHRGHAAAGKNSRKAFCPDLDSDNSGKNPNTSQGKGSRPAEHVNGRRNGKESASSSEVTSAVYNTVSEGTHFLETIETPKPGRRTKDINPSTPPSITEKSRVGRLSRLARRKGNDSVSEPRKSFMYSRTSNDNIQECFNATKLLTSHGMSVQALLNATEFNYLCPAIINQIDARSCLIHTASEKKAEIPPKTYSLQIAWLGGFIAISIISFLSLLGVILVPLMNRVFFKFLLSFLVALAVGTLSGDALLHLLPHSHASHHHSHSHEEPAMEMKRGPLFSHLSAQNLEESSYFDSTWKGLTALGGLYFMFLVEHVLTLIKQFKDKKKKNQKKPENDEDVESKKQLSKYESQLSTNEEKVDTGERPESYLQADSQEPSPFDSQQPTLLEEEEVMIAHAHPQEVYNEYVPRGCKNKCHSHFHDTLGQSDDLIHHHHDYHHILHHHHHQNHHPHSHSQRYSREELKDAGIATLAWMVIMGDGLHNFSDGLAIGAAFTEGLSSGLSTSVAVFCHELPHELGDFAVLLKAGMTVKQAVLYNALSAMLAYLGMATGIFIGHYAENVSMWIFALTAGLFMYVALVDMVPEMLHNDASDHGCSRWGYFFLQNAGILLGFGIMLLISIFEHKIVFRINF
Kind of assay: FACS, HEK293/Rat_LIV-1 cells.

Assay [2] addresses T2, mouse LIV-1 (mouse) (UniProt Q8C145).
T2 sequence (looked up): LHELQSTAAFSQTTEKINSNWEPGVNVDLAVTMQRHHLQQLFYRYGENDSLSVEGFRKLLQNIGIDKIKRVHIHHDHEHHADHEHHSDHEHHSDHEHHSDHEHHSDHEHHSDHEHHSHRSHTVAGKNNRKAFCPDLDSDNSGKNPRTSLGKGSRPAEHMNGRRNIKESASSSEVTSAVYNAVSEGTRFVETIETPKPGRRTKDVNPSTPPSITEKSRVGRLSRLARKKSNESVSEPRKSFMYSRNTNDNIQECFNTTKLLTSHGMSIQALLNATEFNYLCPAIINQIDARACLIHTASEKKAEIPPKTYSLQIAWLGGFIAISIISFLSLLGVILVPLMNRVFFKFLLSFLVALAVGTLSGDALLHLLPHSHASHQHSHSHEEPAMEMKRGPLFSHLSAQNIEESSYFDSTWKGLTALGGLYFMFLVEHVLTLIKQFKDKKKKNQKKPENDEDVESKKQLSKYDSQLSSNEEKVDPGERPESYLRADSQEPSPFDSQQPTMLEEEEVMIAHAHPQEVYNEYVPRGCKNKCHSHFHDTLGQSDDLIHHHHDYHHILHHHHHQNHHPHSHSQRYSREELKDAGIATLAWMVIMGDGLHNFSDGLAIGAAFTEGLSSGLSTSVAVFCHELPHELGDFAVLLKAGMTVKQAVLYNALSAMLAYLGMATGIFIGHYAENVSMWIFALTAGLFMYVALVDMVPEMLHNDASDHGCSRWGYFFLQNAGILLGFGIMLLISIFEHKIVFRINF
Kind of assay: FACS, HEK293/Mouse_LIV-1 cells. On the technique in general: In flow cytometry, cells or beads pass a laser one at a time.

B1: 5D6B10 (antibody, V domains shown)
VH: QVQLKQSGPGLVQPSQSLSITCTVSGFSLTTYGIHWVRQSPGKGLEWLGVIWTGGTTDYNAAFISRLSISKDNSKSQVFFKMNSLQANDTAIYYCARGPSSYWGQGTLVTVSA
VL: DIVMTQSQKFMSTSVGDRVSVTCKASQNVDTNVVWYQQKPGQSPKALIHSASYRYSGVPDRFTGSGSGTDFTLTISNVQSEDLAEYFCQQYNNYPWTFGGGTKLEIK
For the molecule B1, the Top (MFI) in assay [1] came out at 150 MFI; in assay [2], 121 MFI.
